Earlier results on 1 substance are cited in publication doi:10.1101/2024.07.26.605324.

The target in one data set is His19 (UniProt position 19, ILSALHFMAWT). Kind of data set: NMR. The conditions noted are these: 243–263 K; membrane-bound tetramer, wild type with both His19 and His27 present.
In the next data set the target is His27 (UniProt position 27, AWTIGHLNQIK). Kind of data set: NMR. Particulars: 243–263 K; membrane-bound tetramer, wild type with both His19 and His27 present.

For orientation: pKa means the pH at which an ionisable group is half protonated. With “Influenza B virus matrix protein 2 (BM2) proton channel (Influenza B virus)”, the pKa with His19 is 4.2; with His27 it was 7.9.
